Tests used:
[1] = target: T1, recombinant SEB produced by BEVS (staphylococcal enterotoxin B, 6x His-tagged) (Staphylococcus aureus., UniProt P01552); assay: ELISA; details: both partners purified
T1 construct: not shown: His6, C-terminal, kept

[2] = target: T1, recombinant SEB produced by BEVS …; assay: BLI; details: both partners purified
[3] = target: natural SEB secreted from S. aureus strain CCARM 3089 (Staphylococcus aureus CCARM 3089, UniProt P01552, strain); assay: ELISA; details: one partner purified
[4] = target: natural SEB secreted from S. aureus strain SA2 (Staphylococcus aureus SA2 (bovine …, UniProt P01552, strain)); assay: ELISA; details: one partner purified

Row | Binder | EC50 [1] [nM] | Kd [2] [nM] | koff [2] [s⁻¹] | kon [2] [M⁻¹ s⁻¹] | binding result [3] | binding result [4]
1 | anti-SEB monoclonal antibody 2-7A (antibody, V domains shown, also called 2-7A mAb) VH: EVLLVESGGGLVQPGGSLRLSCATSGFTFTDYYMSWVRQPPGKALEWLGFIRNKANGYTTKYSASVKGRFTISRDNSQSILYLQMNTLRAEDSATYYCAKDNWEAYFDYWGQGTTLTVSS VL: DVVMTQTPLSLPVSLGDQASISCRSSQSIVHSNGNTYLEWYLQKPGQSPKLLIYKVSNRFSGVPDRFSGSGSGTDFTLKISRVEAEDLGVYYCFQGSHVPWTFGGGTKLELK | 13.5 | 0.55 | 7.02e-05 | 128000 |  | 
2 | anti-SEB monoclonal antibody 4-7A (antibody, V domains shown, also called 4-7A mAb) VH: QVQMQQSGAELVRPGASVKLSCKASGYTFTNNWMNWVKQRPGQGLQWIGMIDPSDSETHYNQMFKDKASLTVDKSSSSAYMVLSSLTSEDSAVYYCARRALSYYGSNPTLFDYWGQGTTLTVSS VL: DIVMSQSPSSLAVSVGEKVTMSCKSSQSLLYSSNQKNYLAWYQQKPGQSPKLLIYWASTWESGVPDRFTGSGSGTNFTLTINSVKTEDLAVYYCQQYSGYPYTFGGGTKLELK | 14.5 | 1.55 | 0.000226 | 146000 |  | 
3 | anti-SEB monoclonal antibody 11-7E (antibody, V domains shown, also called 11-7E mAb) VH: QVQLKESGPELVRPGVSVKISCKGSGYTFTDYAMHWVKQSHAKSLEWIGIISTYSGNTNYNQKFKAKATMTVDKSSSTAYMELARLTSEDSAIYYCAREGYYGSSRSFDVWGAGTTLTVSS VL: QIVLTQSPALMSASPGEKVTMTCSASSSVSYMYWYQQKPRSSPKPWIYLTSNLASGVPARFSGSGSGTSYSLTISSMEAEDAATYYCQQWSSNPLTFGAGTKLELK | 16.7 | 0.331 | 3.27e-05 | 99000 | binds | binds

Source: publication PMC9599101 (Biosensors, 2022)
